# Entries after “also recorded” stand apart in the source; their conditions may differ. Counter-ions that a name gives are not always drawn.
# How the values were obtained:
# [1] = biological target: T1, rhGAA (e.g., Myozyme®) (Homo sapiens, UniProt P10253); experiment: rhGAA enzyme inactivation in citrate anti-coagulated whole blood at 37° C. (Examples 7, 8); assay type: in vitro ADME
# T1 construct: purchased Genzyme Corp; host or cells: Chinese hamster ovary cell line
# Method: Aliquots were collected at 0, 2, 4, 8 and 24 hrs and centrifuged to obtain plasma. These plasma samples were then diluted in potassium acetate buffer (pH 4.0) and assayed for GAA activity using the 4-methylumbeliferyl-α-glucose (4-MUG) fluorogenic substrate. The measured GAA activity for individual samples at each time point was normalized to the 0 hr and expressed as % of initial activity. Data from 4 independent experiments were analyzed to obtain the mean (and standard deviation) and plotted versus time to assess the loss of enzyme activity over this time course.
# Aliquots were collected at 0, 3 and 6 hrs and centrifuged to obtain plasma. These plasma samples were then diluted in potassium acetate buffer (pH 4.0) and assayed for GAA activity using the 4-methylumbeliferyl-α-glucose (4-MUG) fluorogenic substrate. The measured GAA activity for individual samples at each time point was normalized to the 0 hr and expressed as % of initial activity.
# Moreover, since Myozyme® has a long plasma half-life (reported to be more than 3 hrs), there is a high probability that an appreciable amount of the enzyme remains in the circulation many hours after the infusion that would also be prone to inactivation.
# Based on human plasma PK data, these concentrations are readily obtainable in the clinic.
# [2] = rat, in vivo, po, 30 mg/kg
# [3] = tested on: GAA KO mice; experiment: rhGAA activity in heart and diaphragm of GAA KO mouse (Example 6); assay type: in vivo; details: co-administered with 1-DNJ-HCl vs ERT monotherapy
# Method: Heart and Diaphragm tissue homogenates were harvested and rhGAA activity was measured using the fluorogenic substrate (4-MUG).
# [4] = tested on: GAA KO mice; experiment: Myozyme® tissue uptake in GAA KO mice with and without oral 1-DNJ-HCl (Example 3); assay type: in vivo, mouse; details: 10, 100, 1000 mg/kg oral 1-DNJ-HCl with 10 mg/kg Myozyme® IV weekly; up to 7 days post injection
# Method: Five groups of GAA KO mice were administered one of the following formulations: […]
# (2) 10 mg/kg of Myozyme® IV once per week, for up to three weeks
# Tissue homogenates were generated for analysis. Enzymatic activity as determined using a 4-MUG fluorogenic substrate assay.
# [5] = tested on: cell lines derived from late-onset Pompe patients with the IVS 1 (−13 T>G) splicing defect; experiment: GAA levels in cell lines derived from late-onset Pompe patients; assay type: cell-based, human; details: alone and in combination with hrGAA
# [6] = biological target: T2, recombinant human GAA (Myozyme®) (Homo sapiens, UniProt P10253); experiment: SYPRO Orange thermal stability assay (heat-induced denaturation); assay type: physicochemical
# T2 construct: purchased Genzyme Corp
# From the text: The thermal stability assay utilizes heat to induce protein denaturation, which is monitored using a SYPRO Orange dye that fluoresces upon binding to hydrophobic amino acids (which are not exposed in a folded protein).
# FIG. 5 depicts the results of a thermal stability assay that utilizes heat to induce protein denaturation, which is monitored using a SYPRO Orange dye that fluoresces upon binding to hydrophobic amino acids (which are not exposed in a folded protein).
# Denaturation is monitored using a SYPRO Orange dye that fluoresces upon binding to hydrophobic amino acids (which are not exposed in a folded protein).
# The thermal stability was performed at pH 7.4 for two formulations, which corresponds to the pH of the ER.
# [7] = tested on: GAA KO mice; experiment: Repeat subcutaneous dosing of rhGAA or rhGAA + 1-DNJ co-formulation in GAA KO mice (Example 13); assay type: in vivo, mouse; details: 4 doses Lumizyme 20 mg/kg +/− 1-DNJ 30 mg/kg SQ at 3-4 day intervals, 3 days after the last dose
# Method: 12-week old male GAA KO mice in groups of 7 were used in the present study. Each group of mice was administered one of the following treatments:
# (2) Lumizyme® alone (20 mg/kg) delivered subcutaneously (SQ); or
# (3) Co-formulated Lumizyme® (20 mg/kg) and 1-DNJ (30 mg/kg) SQ.
# Each of the treatments were administered to their respective treatment group for a period of 2 weeks. The treatments were administered on Monday and Thursday of each week. SQ injections were administered between the shoulder blades of each mouse receiving treatment. A total of 4 doses was administered to each study animal. Diphenhydramine was administered intraperitoneally (IP) before the 3rd and 4th doses.
# rhGAA and glycogen levels were determined according to the following sampling protocol. Blood was taken from each study animal after the 4th dose for plasma pharmacokinetic analysis. GAA activity, Western blots, and 1-DNJ levels were determined for plasma samples taken 2 and 4 hours after the last SQ dose.
# Tissue samples were collected to determine rhGAA uptake 3 days following the last dose of the study (i.e., 3 days post dose 4). Tissue samples included heart, diaphragm, tongue, brain, spleen, liver, biceps, triceps, quadriceps, soleus, gastrocnemius, ventral skin and dorsal skin from the SQ injection site. Tissue samples were also collected to determine glycogen concentration 14 days following the last dose of the study (i.e., 14 days post dose 4).
# [8] = Solubility of Lumizyme® in the presence of 1-DNJ-HCl and excipients (Example 12); assay type: physicochemical; details: for Protein solubility: phosphate buffer
# Method: A vial of Lumizyme® containing 52.5 mg protein, 210 mg mannitol, 0.5 mg polysorbate 80, 9.9 mg Na2HPO4×7H2O, and 31.2 mg NaH2PO4×H2O was dissolved in a minimal volume of water (1 mL added) yielding 1.2 mL of protein solution. Five 240-μL aliquots (each containing 10.5 mg protein) were transferred to Amicon Ultra 0.5 mL 30 kDa cutoff centrifugal filter devices and centrifuged for 10 min at 14,000×g in an Eppendorf centrifuge to obtain about 50 μL of retentate.
# The original excipients present in the composition, i.e., mannitol and polysorbate 80 were exchanged for new excipients to test protein solubility (keeping the same buffer conditions). The following excipient solutions were prepared for the exchange using the original phosphate buffer:
# For exchanging excipients, 5.2 mg Na2HPO4 and 27.1 mg NaH2PO4 were dissolved in 10.3 mL water to prepare the washing/excipient exchange phosphate buffer of approximately 26 mM. A volume of 8 mL of the buffer for excipient exchange was supplemented with 160 mg/mL of the small molecule ligand (to prepare excipient 1, 3, 4 and 5 solutions), while 2 mL was supplemented with 32 mg/mL ligand for excipient 2 (100 mM Arginine). Each of the excipients were dissolved in 2 mL of this buffer at the concentrations listed above.
# An excipient solution was added to each separate filter device to achieve a total volume of 0.5 mL. Each filter device was centrifuged for 15 min at 14,000×g in a bench top Eppendorf centrifuge to retain approximately 25 μL. The units were re-filled with the same excipient solution to 0.5 mL and centrifuged again (this process was repeated 2 times). This procedure efficiently replaced mannitol and polysorbate 80 with excipients described above, diluting the original constituents by about 1:1000. All filtrates for each excipient were collected and examined for any protein leaks through the filter.
# Each centrifugal filter device was inverted in a clean tube, and the concentrated protein solution was collected from each filter device by centrifugation for 2 min at 1000×g. The volume of each sample was determined (66 μL, corresponding to a target protein concentration of 160 mg/mL), and it was confirmed that no visible precipitate was observable in each sample. Samples were transferred back to their respective filter devices and centrifuged for an additional 5 min. Samples were then collected by inversion of the filters into clean tubes and centrifuging for 2 min at 1000×g to yield about 37 μL of retentate (corresponding to >280 mg/mL protein based on a total initial concentration of 10.5 mg protein).
# The samples were vortexed and incubated for 1 hr at room temperature to equilibrate liquid and solid phases followed by centrifugation for 10 min at 14,000×g. Again, no visible precipitate was observed. Two-three 10 μL aliquots were taken from the supernatant of each sample (depending on available volume of the liquid phase), and diluted 1:1000 in two steps. Protein concentration was measured by UV absorbance at 280 nm, and the maximum protein solubility was calculated according to a highly reproducible calibration curve. The calibration curve was prepared by dissolving 6.8 mg of Myozyme® (alglucosidase alpha) lyophilized powder (containing 1.16 mg protein) in 1.16 mL of water followed by a serial dilution in deionized water. Absorbance was measured at 280 nm in a 1 cm light-pass quartz semi-micro cuvette using 0.5 mL aliquots.
compound,measurement,setting,value
"OC[C@H]1NC[C@H](O)[C@@H](O)[C@@H]1O [1-DNJ-HCl, 1-deoxynojirimycin hydrochloride]",loss of rhGAA activity in whole blood,"[1]; 2.5 μM 1-DNJ-HCl, 6-hr time course",~20%
same,effect on rhGAA enzyme inactivation in whole blood,"[1]; 50 μM 1-DNJ-HCl, Myozyme® 0.5 μM, up to 24 hrs, hydrochloride",stabilized rhGAA and prevented enzyme inactivation; also recorded: prevents rhGAA enzyme inactivation
same,"stabilizing rhGAA in whole blood, concentration comparison","[1]; 50 and 100 μM 1-DNJ-HCl, 6 hrs",best for stabilizing rhGAA and preventing enzyme inactivation
same,increase of plasma half-life of rhGAA,[2],2 fold
same,rhGAA uptake in the heart and diaphragm,[3],increased
same,"Myozyme® tissue uptake (as a measure of GAA activity), effect of coadministration",[4],dose-dependent increase in Myozyme® uptake
same,GAA levels,[5],increased GAA levels
same,GAA thermostability (GAA's melting temperature),"[6]; 1, 10, 100 μM 1-DNJ-HCl, dose-dependent",increases GAA thermostability
same,stability of Myozyme® (heat required to denature) on addition of the ASSC,"[6]; pH 7.4, 100 μM 1-DNJ-HCl, vs Myozyme® alone, hydrochloride",required significantly more heat to denature
alglucosidase alfa [Lumizyme®],"rhGAA activity uptake, Biceps",[7],56.0 nmol/mg/h
same,"rhGAA activity uptake, Diaphragm",[7],4.2 nmol/mg/h
same,"rhGAA activity uptake, Gastrocnemius",[7],2.0 nmol/mg/h
same,"rhGAA activity uptake, Heart",[7],1.9 nmol/mg/h
same,"rhGAA activity uptake, Quadriceps",[7],2.1 nmol/mg/h
same,"rhGAA activity uptake, Skin",[7],75 nmol/mg/h
same,"rhGAA activity uptake, Soleus",[7],2.7 nmol/mg/h
same,"rhGAA activity uptake, Tongue",[7],2.7 nmol/mg/h
same,"rhGAA activity uptake, Triceps",[7],88.0 nmol/mg/h
same,Protein solubility,"[8]; Arginine 100 mM, 1-DNJ-HCl 32 mg/mL",201 mg/mL
same,Protein solubility,"[8]; Arginine + Glutamic acid 50 mM + 50 mM, 1-DNJ-HCl 160 mg/mL",242 mg/mL
same,Protein solubility,"[8]; Gamma-cyclodextrin 10% (w/v), 1-DNJ-HCl 160 mg/mL",114 mg/mL
same,Protein solubility,"[8]; PEG400 5% (w/v), 1-DNJ-HCl 160 mg/mL",158 mg/mL
same,Protein solubility,"[8]; Proline 250 mM, 1-DNJ-HCl 160 mg/mL",195 mg/mL
same,solubility of the protein,[8]; without the added excipients,about 80 mg/mL

# Source: patent publication US12419937B2, “High concentration alpha-glucosidase compositions for the treatment of Pompe disease” (Amicus Therapeutics, Inc., priority 2012, dated 2025)
